Assay results: paper PMC12103069, “Structure predictions of MuRF1‐UBE2 complexes identify amino acid residues governing interaction selectivity for each MuRF1‐E2 pair” (The Febs Journal, 2025)

B3: GST-MuRF1RM (MuRF1 amino acids 1-115, RING and MFC domains) (domain or fragment, Rattus norvegicus)
chain: MDYKSGLIPDGNAMENLEKQLICPICLEMFTKPVVILPCQHNLCRKCANDIFQAANPYWTNRGGSVSMSGGRFRCPSCRHEVIMDRHGVYGLQRNLLVENIIDIYKQECSSRPLQ
modifications: red fluorescent dye NT-647, covalently, by amine coupling (in the fluorescence assay only)
notes: MuRF1 / TRIM63, Rattus norvegicus, first 115 amino acids (RING and MFC domains); Cloned in pGEX6P3; Immobilised unlabelled by amine coupling in SPR; labelled with NT-647 in the fluorescence assay; also called MuRF1 (in the SPR section); not shown: GST, N-terminal, kept
B4: GST-MuRF3 (full length) (enzyme, UniProt Q9ERP3 1-366, looked up)
chain: MNFTVGFKPLLGDAHNMDNLEKQLICPICLEMFSKPVVILPCQHNLCRKCANDVFQASNPLWQSRGSTTVSSGGRFRCPSCRHEVVLDRHGVYGLQRNLLVENIIDIYKQESSRPLHAKAEQHLMCEEHEDEKINIYCLSCEVPTCSLCKVFGAHKDCEVAPLPTIYKRQKSELSDGIAMLVAGNDRVQAVITQMEEVCQTIEDNSRRQKQLLNQRFETLCAVLEERKGELLQALAREQEEKLQRVRGLIRQYGDHLEGSSKLVESAIQSMEEPQMALYLQQAKELINKVGAMSKVELAGRPEPGYESMEQFSVSVEHVAEMLRTIDFQPGAAGDEEDDDMALDGEEGNAGLEEERLDVPEGSGLH
modifications: fluorochrome, covalently (NT-647 by amine coupling in the methods; NT115 in the results)
notes: Cloned in pGEX6P3

Tests used:
Experiment in all cases: other fluorescence titration; change in the initial fluorescence of dye-labelled GST-MuRF (10 nM, constant) with a 16-sample serial dilution of the E2; MonolithX (NanoTemper), premium capillaries, 100% MST power, 25 °C; 50 mM HEPES pH 7.4, 150 mM NaCl, 0.005% Tween20, 0.1% dextran
Details in all cases: both partners purified
[1] = biological target: B3
[2] = biological target: T1, GST-MuRF3RM (MuRF3 amino acids 1-115, RING and MFC domains) (UniProt Q9ERP3 1-115)
T1 construct: Cloned in pGEX6P3
T1 sequence (looked up): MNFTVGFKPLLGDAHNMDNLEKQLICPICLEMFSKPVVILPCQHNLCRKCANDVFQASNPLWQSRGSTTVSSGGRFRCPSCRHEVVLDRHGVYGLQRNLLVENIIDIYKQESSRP

GST-MuRF3 (full length) = biological target: B4
UBE2L3 wild type = biological target: T2, UBE2L3 wild type (Mus musculus)
T2 construct: UBE2L3, Mus musculus, full length (amplified from C2C12 cells); Cloned in pET28a; source: E. coli Rosetta (DE3), purified (Ni-NTA)

B1: UBE2E1 (enzyme, Mus musculus)
chain: MSDDDSRASTSSSSSSSSNQQTEKEGSTPKKKESKVSMSKNSKLLSTSAKRIQKELADITLDPPPNCSAGPKGDNIYEWRSTILGPPGSVYEGGVFFLDITFTPEYPFKPPKVTFRTRIYHCNINSQGVICLDILKDNWSPALTISKVLLSICSLLTDCNPADPLVGSIATQYMTNRAEHDRMARQWTKRYAT
notes: UBE2E1, Mus musculus, full length (amplified from C2C12 cells); Cloned in pET28a; source: E. coli Rosetta (DE3), purified (Ni-NTA)
Kd [1]: 400 nM | Kd [2]: 500 nM

B2: UBE2J1 cytosolic part, wild type (domain or fragment, Mus musculus, UniProt Q9JJZ4 1-282, looked up)
chain: METRYNLKSPAVKRLMKEAAELKDPTDHYHAQPLEDNLFEWHFTVRGPPDSDFDGGVYHGRIVLPPEYPMKPPSIILLTANGRFEVGKKICLSISGHHPETWQPSWSIRTALLAIIGFMPTKGEGAIGSLDYTPEERRALAKKSQDFCCEGCGSAMKDVLLPLKSGSGSSQADQEAKELARQISFKAEVNSSGKTIAESDLNQCFSLNDSQDDLPTTFQGATASTSYGAQNPSGAPLPQPTQPAPKNTSMSPRQRRAQQQSQRRPSTSPDVLQGQPPRAHHT
notes: UBE2J1, Mus musculus, cytosolic part (amplified from C2C12 cells); Cloned in pET28a; source: E. coli Rosetta (DE3), purified (Ni-NTA)
Kd (GST-MuRF3 (full length)): 400 nM

B3
binding result (UBE2L3 wild type): binds

B4
Kd (UBE2L3 wild type): 400 nM

B5: UBE2J2 cytosolic part, wild type (domain or fragment, Mus musculus, UniProt Q6P073 1-226, looked up)
chain: MSNNSNKRAPTTATQRLKQDYLRIKKDPVPYICAEPLPSNILEWHYVVRGPEMTPYEGGYYHGKLIFPREFPFKPPSIYMITPNGRFKCNTRLCLSITDFHPDTWNPAWSVSTILTGLLSFMVEKGPTLGSIETSDFTKKQLAAQSLVFNLKDKVFCELFPEVVEEIKQKQKAQDELSNRPQNLPLPDVVPDGELHRGQHGIQLLNGHAPAAGPNLAGLPQANRHH
notes: UBE2J2, Mus musculus, cytosolic part (amplified from C2C12 cells); Cloned in pET28a; also called EJ2c; source: E. coli Rosetta (DE3), purified (Ni-NTA)
Kd (GST-MuRF3 (full length)): 24800 nM
